# Results: paper PMC5988664
# Biological target: endothelin-converting enzyme 1 (Ece1), monomer (mouse (endogenous in NMuMG and C2C12))
# Assay: cross-linking
# Chain of endothelin-converting enzyme 1 (Ece1), monomer (Q4PZA2 whole entry): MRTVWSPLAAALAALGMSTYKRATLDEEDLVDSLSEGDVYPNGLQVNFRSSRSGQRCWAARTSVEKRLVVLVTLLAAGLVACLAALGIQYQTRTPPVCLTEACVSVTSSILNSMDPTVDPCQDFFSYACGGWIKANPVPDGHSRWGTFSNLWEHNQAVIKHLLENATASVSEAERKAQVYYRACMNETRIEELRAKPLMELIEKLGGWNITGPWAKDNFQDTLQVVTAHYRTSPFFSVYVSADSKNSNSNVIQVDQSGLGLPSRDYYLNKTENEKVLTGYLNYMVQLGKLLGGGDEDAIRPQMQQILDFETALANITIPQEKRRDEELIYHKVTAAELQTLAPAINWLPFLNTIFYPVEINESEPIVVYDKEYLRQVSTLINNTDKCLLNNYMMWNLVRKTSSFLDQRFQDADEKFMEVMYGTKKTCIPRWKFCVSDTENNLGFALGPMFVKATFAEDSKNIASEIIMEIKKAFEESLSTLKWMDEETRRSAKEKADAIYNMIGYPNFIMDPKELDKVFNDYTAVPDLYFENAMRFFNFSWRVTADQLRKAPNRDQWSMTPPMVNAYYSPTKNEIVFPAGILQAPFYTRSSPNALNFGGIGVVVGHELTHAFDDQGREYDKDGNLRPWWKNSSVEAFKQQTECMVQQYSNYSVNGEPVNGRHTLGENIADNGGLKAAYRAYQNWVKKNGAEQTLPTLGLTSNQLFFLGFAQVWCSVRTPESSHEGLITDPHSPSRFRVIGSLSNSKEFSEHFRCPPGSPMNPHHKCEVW
substance,measurement,value
"endothelin-converting enzyme 1 (Ece1), monomer",stoichiometry N,2
